# Results taken from patent US20230257794A1.
# What was measured:
# HIV-RSC3 = test: biolayer interferometry (Octet); fragment secreted by L. gasseri SP1
# TNFα [1] = biological target: TNFα (UniProt P01375); test: biolayer interferometry (Octet); fragment secreted by L. gasseri
# TNFα [2] = biological target: TNFα (UniProt P01375); test: biolayer interferometry; fragment secreted by L. rhamnosus GG SP1
# Chain of UniProt P01375 (P01375 77-233 limits assumed): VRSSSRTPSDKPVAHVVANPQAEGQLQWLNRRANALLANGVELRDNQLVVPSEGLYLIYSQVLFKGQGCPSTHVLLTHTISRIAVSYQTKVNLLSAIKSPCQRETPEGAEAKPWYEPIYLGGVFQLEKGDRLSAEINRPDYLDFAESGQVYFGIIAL
Substance,Kd (HIV-RSC3) [nM],Kd (TNFα [1]) [nM],Kd (TNFα [2]) [nM]
VRC01scFv (anti-HIV single chain fragment derived from the broadly neutralizing IgG antibody VRC01),10.2,–,–
ozoralizumab (anti-TNFα NANOBODY / antibody fragment marketed by Ablynx) (VHH),–,0.69,6.2
